Results taken from PMC8876890, “Engineering Chimeras by Fusing Plant Receptor-like Kinase EMS1 and BRI1 Reveals the Two Receptors’ Structural Specificity and Molecular Mechanisms” (International Journal of Molecular Sciences, 2022).

Legend:
[1] = biological target: T1, BSK3-His (UniProt Q8W4L3 1-489); experiment: pull-down; GST fusion proteins on Glutathione Sepharose 4B beads, incubated with BSK1-His or BSK3-His 4-6 h at 4 °C, washed 6-8 times with His lysis buffer; blot with His and GST antibodies; settings: both partners purified
T1 construct: BSK3, receptor-like cytoplasmic kinase of subfamily RLCK-XII, full-length cDNA in pET-28a; The species is most likely Arabidopsis thaliana, the plant of the whole study; source: E. coli BL21 (DE3), purified (Ni-NTA Agarose)

[2] = biological target: T2, BSK1-His (UniProt Q944A7 1-512); experiment: as above; settings: both partners purified
T2 construct: BSK1, receptor-like cytoplasmic kinase of subfamily RLCK-XII, full-length cDNA in pET-28a; The species is most likely Arabidopsis thaliana, the plant of the whole study; source: E. coli BL21 (DE3), purified (Ni-NTA Agarose)
T2 sequence (Q944A7 whole entry): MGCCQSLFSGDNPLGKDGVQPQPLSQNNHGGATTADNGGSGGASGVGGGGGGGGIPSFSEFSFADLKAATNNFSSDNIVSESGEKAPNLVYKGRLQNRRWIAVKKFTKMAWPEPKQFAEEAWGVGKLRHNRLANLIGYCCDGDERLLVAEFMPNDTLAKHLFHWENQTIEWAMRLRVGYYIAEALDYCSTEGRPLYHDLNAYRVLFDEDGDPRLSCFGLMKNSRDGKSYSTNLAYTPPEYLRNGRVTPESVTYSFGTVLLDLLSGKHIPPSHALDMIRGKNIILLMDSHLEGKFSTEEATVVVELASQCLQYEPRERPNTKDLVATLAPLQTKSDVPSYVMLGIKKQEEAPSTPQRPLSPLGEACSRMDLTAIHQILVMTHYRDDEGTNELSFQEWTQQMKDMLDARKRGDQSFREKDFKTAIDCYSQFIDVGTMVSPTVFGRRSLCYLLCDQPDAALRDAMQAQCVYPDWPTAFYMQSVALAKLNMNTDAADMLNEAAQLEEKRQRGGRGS

T1 sequence (Q8W4L3 whole entry, the tested form may be a part): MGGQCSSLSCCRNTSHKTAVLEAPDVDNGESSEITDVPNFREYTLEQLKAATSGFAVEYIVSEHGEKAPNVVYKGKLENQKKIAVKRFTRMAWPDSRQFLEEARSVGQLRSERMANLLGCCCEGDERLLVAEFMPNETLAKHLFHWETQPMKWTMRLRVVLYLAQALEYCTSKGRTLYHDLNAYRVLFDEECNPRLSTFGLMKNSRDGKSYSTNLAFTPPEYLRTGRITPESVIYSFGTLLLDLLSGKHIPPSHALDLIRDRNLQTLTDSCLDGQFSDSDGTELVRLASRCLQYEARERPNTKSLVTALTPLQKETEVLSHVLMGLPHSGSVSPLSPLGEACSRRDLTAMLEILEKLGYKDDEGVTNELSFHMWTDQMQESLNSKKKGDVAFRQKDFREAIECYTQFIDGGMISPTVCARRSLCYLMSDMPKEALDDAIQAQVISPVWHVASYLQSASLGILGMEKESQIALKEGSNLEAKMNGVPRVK

| binding result [1] | binding result [2] | Binder |
| --- | --- | --- |
| binds | binds | GST-EMS1-CD (domain or fragment, Arabidopsis thaliana, UniProt Q9LYN8 849-1192, looked up, EXCESS MICROSPOROCYTES1 (EMS1) LRR receptor-like kinase, Arabidopsis thaliana, cytoplasmic domain, residues 849-1192, cloned into pGEX-4T-3; also called cytoplasmic domain of EMS1; EMS1 kinase domain; source: E. coli BL21 (DE3), purified (Glutathione Sepharose 4B)) RRWAMTKRVKQRDDPERMEESRLKGFVDQNLYFLSGSRSREPLSINIAMFEQPLLKVRLGDIVEATDHFSKKNIIGDGGFGTVYKACLPGEKTVAVKKLSEAKTQGNREFMAEMETLGKVKHPNLVSLLGYCSFSEEKLLVYEYMVNGSLDHWLRNQTGMLEVLDWSKRLKIAVGAARGLAFLHHGFIPHIIHRDIKASNILLDGDFEPKVADFGLARLISACESHVSTVIAGTFGYIPPEYGQSARATTKGDVYSFGVILLELVTGKEPTGPDFKESEGGNLVGWAIQKINQGKAVDVIDPLLVSVALKNSQLRLLQIAMLCLAETPAKRPNMLDVLKALKEI |
| binds | binds | GST-BRI1-CD (domain or fragment, Arabidopsis thaliana, UniProt O22476 814-1196, looked up, BRASSINOSTEROID … 1 (BRI1) LRR receptor-like kinase, Arabidopsis thaliana, cytoplasmic domain, residues 814-1196, cloned into pGEX-4T-3; also called cytoplasmic domain of BRI1; source: E. coli BL21 (DE3), purified (Glutathione Sepharose 4B)) GREMRKRRRKKEAELEMYAEGHGNSGDRTANNTNWKLTGVKEALSINLAAFEKPLRKLTFADLLQATNGFHNDSLIGSGGFGDVYKAILKDGSAVAIKKLIHVSGQGDREFMAEMETIGKIKHRNLVPLLGYCKVGDERLLVYEFMKYGSLEDVLHDPKKAGVKLNWSTRRKIAIGSARGLAFLHHNCSPHIIHRDMKSSNVLLDENLEARVSDFGMARLMSAMDTHLSVSTLAGTPGYVPPEYYQSFRCSTKGDVYSYGVVLLELLTGKRPTDSPDFGDNNLVGWVKQHAKLRISDVFDPELMKEDPALEIELLQHLKVAVACLDDRAWRRPTMVQVMAMFKEIQAGSGIDSQSTIRSIEDGGFSTIEMVDMSIKEVPEGKL |
